Measurements reported in patent US20210054055A1.
Like-named read-outs stand apart in the source and are kept apart here.

Assays:
[1] = biological target: Zika virus (ZIKV) virions, envelope protein E (Zika virus)
[2] = biological target: DENV
[3] = biological target: Dengue virus serotype 4 (DENV4) virions, envelope protein E (Dengue virus 4)
[4] = biological target: Dakar (Zika virus)
[5] = biological target: H/PF/2013 (Zika virus)
[6] = biological target: MR766
[7] = biological target: Dengue virus serotype 4 (DENV4) virions, envelope protein E (Dengue virus 4); remark: listed apart in the source
[8] = biological target: Zika virus (ZIKV) virions, envelope protein E (Zika virus); remark: listed apart in the source

Substance: ZKA78 (antibody)
- IC50 (read off the curve) [1]: 0.2 µg/mL

Substance: EDE1 mAb C10 (antibody)
- EC50 (read off the curve) [2]: 0.08 µg/mL
- FRNT50 (focus reduction neutralization on Vero cells) [3]: 88.9 ng/mL
- FRNT50 (focus reduction neutralization on Vero cells) [4]: 28.5 ng/mL
- FRNT50 (focus reduction neutralization on Vero cells) [5]: 16.2 ng/mL
- FRNT50 (focus reduction neutralization on Vero cells) [6]: 0.2 ng/mL
- EC50 (read off the curve) [7]: 0.2 µg/mL

Substance: EDE1 mAb C8 (antibody)
- IC50 (read off the curve) [1]: 0.2 µg/mL

Substance: 2D22 (antibody)
- EC50 (read off the curve) [2]: 0.08 µg/mL

Substance: ZKA190, human ZIKV-specific mAb (antibody)
- IC50 (read off the curve) [8]: 0.07 µg/mL

Substance: 1M7 (antibody)
- IC50 (read off the curve) [1]: 0.09 µg/mL
